± gives the standard error. Fewer inactive variants are shown than the library holds.
B1: glmS ribozyme (parent)
chain: AUAAAAGCGCCAGAACUACAGAAAUGUAGUUGACGAGGAGGAGGUUUAUCGAAUUUUCGGCGGAUGCCUCCAAA

Key:
Details in all cases: with glucosamine-6-phosphate
glucosamine-6-phosphate [1] = variants of: B1; assay: self-cleavage kobs at 160 uM GlcN6P; higher = faster cleavage; RNA array
Outline: (§1)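 A hybridised Cy3 probe tracked barcoded ribozyme variants, transcribed in situ by E. coli RNA polymerase on sequenced MiSeq chips, at 37 °C. The variants received 40 μM to 10 mM glucosamine-6-phosphate in HEPES/KCl/Mg(OAc)2 buffer. kobs came from decay fits and kcat and KM from weighted Michaelis–Menten fits.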

glucosamine-6-phosphate [2] = variants of: B1; assay: self-cleavage kobs at 640 uM GlcN6P; higher = faster cleavage; RNA array
Outline: as §1

glucosamine-6-phosphate [3] = variants of: B1; assay: self-cleavage kobs at 10000 uM GlcN6P; higher = faster cleavage; RNA array
Outline: as §1

glucosamine-6-phosphate [4] = variants of: B1; assay: self-cleavage kobs at 2500 uM GlcN6P; higher = faster cleavage; RNA array
Outline: as §1

Variant | self-cleavage kobs at 160 uM GlcN6P (glucosamine-6-phosphate [1]) [s⁻¹] | self-cleavage kobs at 640 uM GlcN6P (glucosamine-6-phosphate [2]) [s⁻¹] | self-cleavage kobs at 10000 uM GlcN6P (glucosamine-6-phosphate [3]) [s⁻¹] | self-cleavage kobs at 2500 uM GlcN6P (glucosamine-6-phosphate [4]) [s⁻¹]
G35C A36C | < 1e-05 | < 1e-05 | < 1e-05 | 
A39C G51A G63C | < 1e-05 | < 1e-05 |  | 
A33U A36U | < 1e-05 | < 1e-05 | < 1e-05 | < 1e-05
C34U G41C G66U | < 1e-05 | < 1e-05 |  | < 1e-05
C34G G37A | < 1e-05 | < 1e-05 |  | 
G35C C50U A53C | < 1e-05 | < 1e-05 |  | < 1e-05
G37A G38U U65C | < 1e-05 |  | < 1e-05 | 
G43A A52U | < 1e-05 | < 1e-05 |  | < 1e-05
C34A G37U A48G | < 1e-05 |  |  | 
G35A U55C | < 1e-05 | < 1e-05 | < 1e-05 | < 1e-05
G41C G63A | < 1e-05 | < 1e-05 |  | 
A33C C34G | < 1e-05 |  |  | 
G41C U46G U57C | < 1e-05 | < 1e-05 |  | < 1e-05
A33G G37U G59C | < 1e-05 |  |  | < 1e-05
G38C G51U U57C | < 1e-05 |  |  | < 1e-05
U45C C50G G51A A53U G60C | < 1e-05 | < 1e-05 |  | < 1e-05
G37U G44A G66U | < 1e-05 |  |  | 
A36C G66C | < 1e-05 | < 1e-05 | < 1e-05 | 
A39U G40C U46C | 5.92e-05 ± 1.4e-05 | 0.000338 ± 5.3e-05 |  | 0.000277 ± 7.4e-05
G40A G51C | < 1e-05 | < 1e-05 | < 1e-05 | 
C34U G37U | < 1e-05 | < 1e-05 | < 1e-05 | < 1e-05
G37C G41C | < 1e-05 | < 1e-05 |  | < 1e-05
G40C A48U C61U | < 1e-05 | < 1e-05 |  | 
G38C C61U C71U | < 1e-05 |  |  | 
C34A U55A | < 1e-05 | < 1e-05 |  | < 1e-05

Variant | self-cleavage kobs at 160 uM GlcN6P (glucosamine-6-phosphate [1]) [s⁻¹] | self-cleavage kobs at 640 uM GlcN6P (glucosamine-6-phosphate [2]) [s⁻¹] | self-cleavage kobs at 10000 uM GlcN6P (glucosamine-6-phosphate [3]) [s⁻¹] | self-cleavage kobs at 2500 uM GlcN6P (glucosamine-6-phosphate [4]) [s⁻¹]
A33U G37C U46C | < 1e-05 | < 1e-05 |  | < 1e-05
C34A G38U A53C | < 1e-05 | < 1e-05 |  | < 1e-05
A36U G43A A52U G63A C67A | < 1e-05 |  |  | 
G35A G63A | < 1e-05 |  | < 1e-05 | 
A36U G41A U54G | < 1e-05 | < 1e-05 |  | 
G43C U55G | < 1e-05 |  |  | 
G38U G40U A53C C61G A64G C68A | < 1e-05 | < 1e-05 |  | 
A36U U45C | < 1e-05 | < 1e-05 | < 1e-05 | < 1e-05
G37C G43C | < 1e-05 | < 1e-05 | < 1e-05 | < 1e-05
C34U G37A C50A A52G C70G | 0.000507 ± 0.00015 | 0.000453 ± 0.00013 |  | 0.000268 ± 9.2e-05
A36U U47A G66U C70G C71U | 4.68e-05 ± 2.2e-05 |  |  | 0.00104 ± 0.00043
A36G U49A | < 1e-05 | < 1e-05 | < 1e-05 | < 1e-05
G38A A39C G40U G43A U49G U54C | < 1e-05 | < 1e-05 |  | < 1e-05
A39U G40A A64G | 0.000419 ± 0.00012 | 0.000775 ± 0.00021 |  | 0.00738 ± 0.0025
A42C G43C C68A C71A | < 1e-05 |  |  | < 1e-05
U45C A48U U65G | < 1e-05 |  |  | 
C34U U47A A48G U69G | < 1e-05 |  |  | 
G44U G62A | < 1e-05 | < 1e-05 |  | < 1e-05
A42U C61A | < 1e-05 | < 1e-05 | < 1e-05 | < 1e-05
G37A U46G A53G C61A C70A | < 1e-05 |  |  | 
C34U U47A | < 1e-05 |  |  | < 1e-05
G35C A64G | < 1e-05 | < 1e-05 |  | < 1e-05
A36C G41U | < 1e-05 | < 1e-05 | < 1e-05 | < 1e-05
A36U U57C | < 1e-05 |  | < 1e-05 | 
A33U G37A | < 1e-05 |  |  | 

Variant | self-cleavage kobs at 160 uM GlcN6P (glucosamine-6-phosphate [1]) [s⁻¹] | self-cleavage kobs at 640 uM GlcN6P (glucosamine-6-phosphate [2]) [s⁻¹] | self-cleavage kobs at 10000 uM GlcN6P (glucosamine-6-phosphate [3]) [s⁻¹] | self-cleavage kobs at 2500 uM GlcN6P (glucosamine-6-phosphate [4]) [s⁻¹]
A36C A52C | < 1e-05 |  | < 1e-05 | 
A33U A36C G43A C70G | < 1e-05 | < 1e-05 |  | < 1e-05
C34U A36G | < 1e-05 | < 1e-05 |  | < 1e-05
G35C C70U | < 1e-05 | < 1e-05 | < 1e-05 | 
G37U G38C C71U | < 1e-05 | < 1e-05 |  | 
U45C G62U | < 1e-05 | < 1e-05 | < 1e-05 | < 1e-05
A39G G51U G59U | < 1e-05 | < 1e-05 | < 1e-05 | 
A33U C61G C70U | < 1e-05 |  |  | 
G35C G63C | < 1e-05 | < 1e-05 |  | < 1e-05
G32U G59C | < 1e-05 | < 1e-05 |  | < 1e-05
A36C A52C C70U | < 1e-05 | < 1e-05 |  | 
A33U C58U | < 1e-05 | < 1e-05 |  | 
C34U U54A U69G | 0.000126 ± 4.6e-05 | 0.000598 ± 0.0002 | 0.000125 ± 3.4e-05 | 0.000128 ± 4.7e-05
A33U U54G U56G C61G U69C | 9.03e-05 ± 2.7e-05 | 0.00035 ± 0.00013 |  | 0.000171 ± 6e-05
G35A G43U C68U | < 1e-05 |  |  | < 1e-05
G40A C61U C68G C70G C71G | < 1e-05 | < 1e-05 |  | 
G37C G51U | < 1e-05 |  | < 1e-05 | 
G37A G44A U46C A48U C71U | < 1e-05 | < 1e-05 |  | < 1e-05
G38A A39U | < 1e-05 | < 1e-05 |  | 
G41U A52U U57C | < 1e-05 |  |  | 
A39U G51U G62U C71A | < 1e-05 |  |  | < 1e-05
G38U G62C | < 1e-05 | < 1e-05 |  | 
C34A U49C | < 1e-05 | < 1e-05 | < 1e-05 | < 1e-05
A36U G41A A42U G43U | < 1e-05 | < 1e-05 |  | < 1e-05
G44U U49C | < 1e-05 | < 1e-05 | < 1e-05 | 

Variant | self-cleavage kobs at 160 uM GlcN6P (glucosamine-6-phosphate [1]) [s⁻¹] | self-cleavage kobs at 640 uM GlcN6P (glucosamine-6-phosphate [2]) [s⁻¹] | self-cleavage kobs at 10000 uM GlcN6P (glucosamine-6-phosphate [3]) [s⁻¹] | self-cleavage kobs at 2500 uM GlcN6P (glucosamine-6-phosphate [4]) [s⁻¹]
U45A A52U U65G | < 1e-05 | < 1e-05 |  | 
G41C G43A G44C C68U C71U | < 1e-05 |  |  | < 1e-05
G44C C61G | < 1e-05 | < 1e-05 | < 1e-05 | 
G37C U65C | < 1e-05 | < 1e-05 |  | < 1e-05
G37C U65A | < 1e-05 | < 1e-05 |  | 
A36C U46A | < 1e-05 |  | < 1e-05 | < 1e-05
A33U C50U C61A C68G C70U | 0.000144 ± 4.4e-05 | 0.000229 ± 6.4e-05 |  | 
G35C U46A U56A C61U C68U | < 1e-05 |  |  | < 1e-05
A36G A42U U56C | < 1e-05 | < 1e-05 |  | < 1e-05
A42C C58A | < 1e-05 | < 1e-05 | < 1e-05 | 
G35U G41U G43A | < 1e-05 | < 1e-05 |  | < 1e-05
A39C G40C A52G | < 1e-05 | < 1e-05 |  | 
G38C G41C | < 1e-05 | < 1e-05 |  | < 1e-05
A36G A64G C71U | < 1e-05 | < 1e-05 |  | 
G38C U55A | < 1e-05 | < 1e-05 |  | 
A36C U56A | < 1e-05 | < 1e-05 |  | < 1e-05
A33U G51U C58U | < 1e-05 |  |  | 
G38A A64G | < 1e-05 |  |  | 
A36U G44A U55A | < 1e-05 |  |  | < 1e-05
C34U G40C U47A C67G | < 1e-05 |  |  | 
G43U U69G | < 1e-05 | < 1e-05 | < 1e-05 | 
G44U C61A | < 1e-05 | < 1e-05 | < 1e-05 | < 1e-05
G41U G51C G62A C68U | < 1e-05 | < 1e-05 |  | < 1e-05
C34G U46A | < 1e-05 |  | < 1e-05 | < 1e-05
A42U U55A G60A C71G | < 1e-05 | < 1e-05 |  | < 1e-05
